From the supplement of paper PMC10567573

B1: CHIT1 (parent)
chain: CSWKGATKQRIQDQKVPYIFRDNQ

Variants of: B1
Test: protein stability index of a GFP-peptide fusion (GPS, HEK-293T) (PSI 1-6); higher = more stable
Conditions: c terminus: a fixed tail appended
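Further: lentivirally expressed fusions sorted by FACS into six bins by GFP to DsRed ratio, PSI derived from sequencing read proportions per bin multiplied by bin number.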

Variant | protein stability index
CSWKGATKRRIQDQKVPYIFRDNQ [Q9R] | 2.37
CSWKGATKIRIQDQKVPYIFRDNQ [Q9I] | 2.92
CSWKGATKHRIQDQKVPYIFRDNQ [Q9H] | 2.66
CSWKGATKTRIQDQKVPYIFRDNQ [Q9T] | 2.8
CSWKGATKNRIQDQKVPYIFRDNQ [Q9N] | 2.62
CSWKGATKYRIQDQKVPYIFRDNQ [Q9Y] | 2.17
CSWKGATKVRIQDQKVPYIFRDNQ [Q9V] | 2.44
CSWKGATKCRIQDQKVPYIFRDNQ [Q9C] | 1.07
CSWKGATKLRIQDQKVPYIFRDNQ [Q9L] | 1.78
CSWKGATKWRIQDQKVPYIFRDNQ [Q9W] | 1.39
CSWKGATKMRIQDQKVPYIFRDNQ [Q9M] | 2.29
CSWKGATKARIQDQKVPYIFRDNQ [Q9A] | 2.5
CSWKGATKPRIQDQKVPYIFRDNQ [Q9P] | 2.25
CSWKGATKERIQDQKVPYIFRDNQ [Q9E] | 2.42
CSWKGATKFRIQDQKVPYIFRDNQ [Q9F] | 1.94
CSWKGATKDRIQDQKVPYIFRDNQ [Q9D] | 2.58
CSWKGATKKRIQDQKVPYIFRDNQ [Q9K] | 2.44
CSWKGATKSRIQDQKVPYIFRDNQ [Q9S] | 2.57
CSWKGATKGRIQDQKVPYIFRDNQ [Q9G] | 2.88
CSWKGARKQRIQDQKVPYIFRDNQ [T7R] | 2.75
CSWKGAIKQRIQDQKVPYIFRDNQ [T7I] | 2.3
CSWKGADKQRIQDQKVPYIFRDNQ [T7D] | 3.29
CSWKGAQKQRIQDQKVPYIFRDNQ [T7Q] | 2.89
CSWKGALKQRIQDQKVPYIFRDNQ [T7L] | 2.52

Variant | protein stability index
CSWKGAFKQRIQDQKVPYIFRDNQ [T7F] | 2.68
CSWKGAEKQRIQDQKVPYIFRDNQ [T7E] | 3.41
CSWKGAVKQRIQDQKVPYIFRDNQ [T7V] | 2.42
CSWKGAKKQRIQDQKVPYIFRDNQ [T7K] | 2.4
CSWKGASKQRIQDQKVPYIFRDNQ [T7S] | 3.32
CSWKGAWKQRIQDQKVPYIFRDNQ [T7W] | 1.12
CSWKGAHKQRIQDQKVPYIFRDNQ [T7H] | 2.91
CSWKGAMKQRIQDQKVPYIFRDNQ [T7M] | 2.28
CSWKGAYKQRIQDQKVPYIFRDNQ [T7Y] | 3.94
CSWKGAGKQRIQDQKVPYIFRDNQ [T7G] | 2.77
CSWKGAPKQRIQDQKVPYIFRDNQ [T7P] | 2.74
CSWKGANKQRIQDQKVPYIFRDNQ [T7N] | 2.62
CSWKGAAKQRIQDQKVPYIFRDNQ [T7A] | 2.51
CSWKGACKQRIQDQKVPYIFRDNQ [T7C] | 2.29
CSWKGATKQLIQDQKVPYIFRDNQ [R10L] | 2.41
CSWKGATKQDIQDQKVPYIFRDNQ [R10D] | 2.71
CSWKGATKQYIQDQKVPYIFRDNQ [R10Y] | 2.54
CSWKGATKQIIQDQKVPYIFRDNQ [R10I] | 1.64
CSWKGATKQPIQDQKVPYIFRDNQ [R10P] | 2.47
CSWKGATKQFIQDQKVPYIFRDNQ [R10F] | 2.5
CSWKGATKQSIQDQKVPYIFRDNQ [R10S] | 2.81
CSWKGATKQCIQDQKVPYIFRDNQ [R10C] | 2.63
CSWKGATKQTIQDQKVPYIFRDNQ [R10T] | 3.68
CSWKGATKQEIQDQKVPYIFRDNQ [R10E] | 3.87

Variant | protein stability index
CSWKGATKQQIQDQKVPYIFRDNQ [R10Q] | 2.8
CSWKGATKQGIQDQKVPYIFRDNQ [R10G] | 2.38
CSWKGATKQWIQDQKVPYIFRDNQ [R10W] | 1.67
CSWKGATKQAIQDQKVPYIFRDNQ [R10A] | 3.57
CSWKGATKQHIQDQKVPYIFRDNQ [R10H] | 2.94
CSWKGATKQKIQDQKVPYIFRDNQ [R10K] | 2.67
CSWKGATKQVIQDQKVPYIFRDNQ [R10V] | 2.43
CSWKGATKQMIQDQKVPYIFRDNQ [R10M] | 2.6
CSWKGATKQNIQDQKVPYIFRDNQ [R10N] | 3.46
CSWKGYTKQRIQDQKVPYIFRDNQ [A6Y] | 2.31
CSWKGATLQRIQDQKVPYIFRDNQ [K8L] | 2.77
CSWKGATSQRIQDQKVPYIFRDNQ [K8S] | 2.44
CSWKGATQQRIQDQKVPYIFRDNQ [K8Q] | 2.12
CSWKGATHQRIQDQKVPYIFRDNQ [K8H] | 2.53
CSWKGATEQRIQDQKVPYIFRDNQ [K8E] | 3.19
CSWKGATTQRIQDQKVPYIFRDNQ [K8T] | 2.07
CSWKGATNQRIQDQKVPYIFRDNQ [K8N] | 2.54
CSWKGATCQRIQDQKVPYIFRDNQ [K8C] | 1.76
CSWKGATIQRIQDQKVPYIFRDNQ [K8I] | 2.15
CSWKGATGQRIQDQKVPYIFRDNQ [K8G] | 2.95
CSWKGATRQRIQDQKVPYIFRDNQ [K8R] | 2.81
CSWKGATYQRIQDQKVPYIFRDNQ [K8Y] | 2.4
CSWKGATFQRIQDQKVPYIFRDNQ [K8F] | 2.21
CSWKGATVQRIQDQKVPYIFRDNQ [K8V] | 3.23

Variant | protein stability index
CSWKGATWQRIQDQKVPYIFRDNQ [K8W] | 2.03
CSWKGATAQRIQDQKVPYIFRDNQ [K8A] | 2.58
CSWKGATPQRIQDQKVPYIFRDNQ [K8P] | 2.23
CSWKGATDQRIQDQKVPYIFRDNQ [K8D] | 2.59
CSWKGATMQRIQDQKVPYIFRDNQ [K8M] | 2.01
CSWKGATKQRFQDQKVPYIFRDNQ [I11F] | 2.44
CSWKGATKQRDQDQKVPYIFRDNQ [I11D] | 3.74
CSWKGATKQRSQDQKVPYIFRDNQ [I11S] | 3.01
CSWKGATKQRGQDQKVPYIFRDNQ [I11G] | 2.32
CSWKGATKQREQDQKVPYIFRDNQ [I11E] | 3.33
CSWKGATKQRAQDQKVPYIFRDNQ [I11A] | 2.85
CSWKGATKQRNQDQKVPYIFRDNQ [I11N] | 2.56
CSWKGATKQRRQDQKVPYIFRDNQ [I11R] | 3.15
CSWKGATKQRMQDQKVPYIFRDNQ [I11M] | 2.5
CSWKGATKQRVQDQKVPYIFRDNQ [I11V] | 2.98
CSWKGATKQRHQDQKVPYIFRDNQ [I11H] | 3.42
CSWKGATKQRQQDQKVPYIFRDNQ [I11Q] | 3.54
CSWKGATKQRPQDQKVPYIFRDNQ [I11P] | 2.1
CSWKGATKQRKQDQKVPYIFRDNQ [I11K] | 2.69
CSWKGATKQRCQDQKVPYIFRDNQ [I11C] | 2.3
CSWKGATKQRTQDQKVPYIFRDNQ [I11T] | 2.66
CSWKGATKQRLQDQKVPYIFRDNQ [I11L] | 3.14
